Reference: paper PMC7726437 (2020)

Experiments:
Experiment in all cases: BLI
[1] = target: T1, anti-idiotype vNAR-Fc variant S9 (bamboo shark, biotin (EZ-Link Sulfo-NHS-LC-Biotin) in the cellular binding assay only)
T1 chain: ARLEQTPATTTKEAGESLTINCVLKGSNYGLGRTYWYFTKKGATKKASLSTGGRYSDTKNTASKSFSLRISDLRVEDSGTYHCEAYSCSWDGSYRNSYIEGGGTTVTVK

[2] = target: T2, anti-idiotype vNAR-Fc variant S7 (bamboo shark)
T2 chain: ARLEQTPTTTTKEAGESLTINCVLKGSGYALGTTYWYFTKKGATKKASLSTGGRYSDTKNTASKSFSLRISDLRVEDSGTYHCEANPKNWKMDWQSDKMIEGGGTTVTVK

[3] = target: T3, anti-idiotype vNAR-Fc variant S4 (bamboo shark)
T3 chain: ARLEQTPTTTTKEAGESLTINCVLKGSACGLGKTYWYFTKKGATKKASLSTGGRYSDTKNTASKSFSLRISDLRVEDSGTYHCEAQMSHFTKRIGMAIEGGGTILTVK

[4] = target: T4, anti-idiotype vNAR-Fc variant S2 (bamboo shark, biotin (EZ-Link Sulfo-NHS-LC-Biotin) in the cellular binding assay only)
T4 chain: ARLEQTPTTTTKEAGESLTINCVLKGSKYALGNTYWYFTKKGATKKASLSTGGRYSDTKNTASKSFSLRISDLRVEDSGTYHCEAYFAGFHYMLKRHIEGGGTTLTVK

B1: soluble recombinant B-cell receptor (BCR) of lymphoma cell line SUP-B8, produced as full-length IgG (antibody, V domains shown)
VH: LVQSGGEVKKPGASVKVSCKASGYTFHSYGITWVRQAPGQGLEWMGWINGYNGYTNYAQKLQDRVTMTTNTSTNTVYMEVRSLRSDDTAVYYCARDDCSGDNCYMSAYWGQGTVVTVSS
VL: QSVLTQPPSASGTPGQRVTISCSGSSSNIASNYVYWYQQLPGMAPKLLIYRDNQRPSGVPDRFSGSRSGTSASLAISGLRSDDEADYYCATWDDSLSGWVFGGGTKLTVL
Kd [1]: 11 nM | Kd [2]: 1.9 nM | Kd [3]: 5.3 nM | Kd [4]: 4.5 nM
